# Assay results reported in PMC3634016 (PLoS ONE, 2013).
# Target: T1, Wild type rat calmodulin (CaM) (rat, UniProt P0DP29 1-149)
# T1 construct: calmodulin, rat, wild type; also called Ca^2+-CaM; calcium-calmodulin; source: expressed from pET9d (Novagen), purified (Phenyl Sepharose, gel filtration)
# Test: ITC; peptide titrated into Ca^2+-CaM alone; 25°C; 25 mM Tris-Cl pH 7.5, 75 mM NaCl, 0.5 mM CaCl2; one-set-of-sites model
# Settings: both partners purified
binder,measurement,value
"SWQAAIDAARQAKLMGS (17 mer with the N-terminal NSCaTE motif of the mammalian L-type calcium channel Cav1.2; also called Cav1.2 NSCaTE; source: synthetic peptide (CanPeptide Inc, >95% purity)) [mammalian NSCaTE_(Cav1.2) peptide]",stoichiometry N,2
